Target: biotinylated SARS-CoV-2 fusion peptide (Severe acute respiratory syndrome …, biotin on the N-terminus)
Assay: BLI
Details: both partners purified

B1: COV44–62 Fab VH R50W (Fab, V domains shown)
VH: QMQLMQSGAEVKKPGASVTVSCKASGDTFSDYRIHWVRQAPGQGLEWMGWMNPKSGDTNFAQKFQGRVTMTRDMSINTAYMTLSGLTFDDTALYYCASLLIVGGFDPLDDFEVWGQGTMVTISS
VL: QSALTQPPSASGSPGQSVTISCSGTSSDVGGYNFVSWYQHHPGKAPKILIYEVTKRPSGVPDRFSGSKSGNTASLTVSGLQAEDEADYYCSSYGGTNNLLFGGGTKLTVL
- binding result: no binding (tested: 300 nM)

— paper doi:10.1101/2023.06.06.543969 (bioRxiv, 2023)
